The supplement of paper PMC10065799, “High-throughput profiling of sequence recognition by tyrosine kinases and SH2 domains using bacterial peptide display” (eLife, 2023)

How the values were obtained:
Fer (mouse) = test: phosphorylation enrichment, bacterial display (enrichment ratio); higher = better substrate or ligand; peptides without Tyr show the background
EPHB1 = EPHB1 (UniProt P54762); test: as above
c-Abl (mouse) = test: as above
Fes = Fes (UniProt P07332); test: as above
FGFR3 = FGFR3 (UniProt P22607); test: as above
FGFR3, sequence (P22607 whole entry, looked up): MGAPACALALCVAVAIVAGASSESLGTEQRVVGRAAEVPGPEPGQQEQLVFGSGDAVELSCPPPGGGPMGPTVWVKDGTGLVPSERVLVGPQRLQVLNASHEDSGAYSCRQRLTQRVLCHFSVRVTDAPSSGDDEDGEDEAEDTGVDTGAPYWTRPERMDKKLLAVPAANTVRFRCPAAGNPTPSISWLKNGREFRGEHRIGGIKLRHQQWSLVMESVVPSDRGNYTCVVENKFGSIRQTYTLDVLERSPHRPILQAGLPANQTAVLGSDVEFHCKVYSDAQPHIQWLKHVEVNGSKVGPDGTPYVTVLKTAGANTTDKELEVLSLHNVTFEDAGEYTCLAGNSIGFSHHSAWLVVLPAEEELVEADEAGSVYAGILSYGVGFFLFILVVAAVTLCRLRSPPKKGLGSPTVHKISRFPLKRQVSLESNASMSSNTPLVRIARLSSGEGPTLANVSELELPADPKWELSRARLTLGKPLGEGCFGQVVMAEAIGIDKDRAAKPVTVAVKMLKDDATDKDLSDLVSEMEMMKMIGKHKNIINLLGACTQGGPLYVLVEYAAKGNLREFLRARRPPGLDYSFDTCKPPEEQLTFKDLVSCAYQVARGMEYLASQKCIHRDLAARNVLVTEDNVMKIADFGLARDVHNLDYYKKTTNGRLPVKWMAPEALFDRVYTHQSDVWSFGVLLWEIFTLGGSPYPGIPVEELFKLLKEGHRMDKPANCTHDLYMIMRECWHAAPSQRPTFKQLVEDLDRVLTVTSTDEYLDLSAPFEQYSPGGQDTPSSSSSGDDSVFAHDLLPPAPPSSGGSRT

Jak2 = Jak2 (UniProt O60674); test: as above
Jak2, sequence (O60674 whole entry, looked up): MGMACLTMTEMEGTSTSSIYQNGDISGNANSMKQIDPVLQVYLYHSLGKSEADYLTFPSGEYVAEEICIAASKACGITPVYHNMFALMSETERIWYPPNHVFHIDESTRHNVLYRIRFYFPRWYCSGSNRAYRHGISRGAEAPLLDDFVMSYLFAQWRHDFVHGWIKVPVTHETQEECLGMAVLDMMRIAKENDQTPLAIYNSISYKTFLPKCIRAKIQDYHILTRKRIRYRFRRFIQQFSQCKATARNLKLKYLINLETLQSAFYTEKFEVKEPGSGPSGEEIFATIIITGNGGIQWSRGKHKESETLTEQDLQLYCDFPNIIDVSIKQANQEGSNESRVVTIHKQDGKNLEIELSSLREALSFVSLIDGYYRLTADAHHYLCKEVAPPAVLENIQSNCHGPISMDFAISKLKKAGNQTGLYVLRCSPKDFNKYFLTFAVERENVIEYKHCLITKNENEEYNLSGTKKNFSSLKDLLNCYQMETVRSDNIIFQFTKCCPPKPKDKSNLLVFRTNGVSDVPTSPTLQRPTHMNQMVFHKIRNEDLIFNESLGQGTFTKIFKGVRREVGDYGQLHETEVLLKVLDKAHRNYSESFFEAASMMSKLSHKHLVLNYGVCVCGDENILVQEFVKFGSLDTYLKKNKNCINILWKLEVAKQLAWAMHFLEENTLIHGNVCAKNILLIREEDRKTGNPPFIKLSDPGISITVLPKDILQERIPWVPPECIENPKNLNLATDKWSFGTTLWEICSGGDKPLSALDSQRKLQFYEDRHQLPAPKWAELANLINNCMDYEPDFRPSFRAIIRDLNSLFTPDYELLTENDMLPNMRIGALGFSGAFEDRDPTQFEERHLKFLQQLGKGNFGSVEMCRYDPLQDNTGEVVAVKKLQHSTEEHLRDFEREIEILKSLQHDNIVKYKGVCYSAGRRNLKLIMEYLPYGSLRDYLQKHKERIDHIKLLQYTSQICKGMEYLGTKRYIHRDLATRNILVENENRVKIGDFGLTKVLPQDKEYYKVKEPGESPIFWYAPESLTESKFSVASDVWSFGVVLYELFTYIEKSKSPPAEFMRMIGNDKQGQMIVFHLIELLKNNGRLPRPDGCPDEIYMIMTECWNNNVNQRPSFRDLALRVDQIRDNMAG

c-Src = test: as above
AncSZ = test: as above
Fyn = Fyn (UniProt P06241); test: as above
Fyn, sequence (P06241 whole entry, looked up): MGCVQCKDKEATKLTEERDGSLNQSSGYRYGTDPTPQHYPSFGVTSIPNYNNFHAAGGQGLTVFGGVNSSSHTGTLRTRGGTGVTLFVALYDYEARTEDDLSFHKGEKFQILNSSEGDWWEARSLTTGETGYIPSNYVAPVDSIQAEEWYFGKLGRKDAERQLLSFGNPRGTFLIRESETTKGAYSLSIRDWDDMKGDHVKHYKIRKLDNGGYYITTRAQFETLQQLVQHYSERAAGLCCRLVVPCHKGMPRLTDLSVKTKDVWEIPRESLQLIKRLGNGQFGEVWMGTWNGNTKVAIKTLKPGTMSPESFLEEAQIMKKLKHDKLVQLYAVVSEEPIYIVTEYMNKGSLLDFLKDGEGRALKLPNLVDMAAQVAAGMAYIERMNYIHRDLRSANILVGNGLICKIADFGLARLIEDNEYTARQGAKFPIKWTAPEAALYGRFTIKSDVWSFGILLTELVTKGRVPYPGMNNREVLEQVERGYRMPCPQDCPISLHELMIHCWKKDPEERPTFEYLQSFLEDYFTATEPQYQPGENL

EPHB2 = EPHB2 (UniProt P29323); test: as above
MERTK = MERTK (UniProt Q12866); test: as above
MERTK, sequence (Q12866 whole entry, looked up): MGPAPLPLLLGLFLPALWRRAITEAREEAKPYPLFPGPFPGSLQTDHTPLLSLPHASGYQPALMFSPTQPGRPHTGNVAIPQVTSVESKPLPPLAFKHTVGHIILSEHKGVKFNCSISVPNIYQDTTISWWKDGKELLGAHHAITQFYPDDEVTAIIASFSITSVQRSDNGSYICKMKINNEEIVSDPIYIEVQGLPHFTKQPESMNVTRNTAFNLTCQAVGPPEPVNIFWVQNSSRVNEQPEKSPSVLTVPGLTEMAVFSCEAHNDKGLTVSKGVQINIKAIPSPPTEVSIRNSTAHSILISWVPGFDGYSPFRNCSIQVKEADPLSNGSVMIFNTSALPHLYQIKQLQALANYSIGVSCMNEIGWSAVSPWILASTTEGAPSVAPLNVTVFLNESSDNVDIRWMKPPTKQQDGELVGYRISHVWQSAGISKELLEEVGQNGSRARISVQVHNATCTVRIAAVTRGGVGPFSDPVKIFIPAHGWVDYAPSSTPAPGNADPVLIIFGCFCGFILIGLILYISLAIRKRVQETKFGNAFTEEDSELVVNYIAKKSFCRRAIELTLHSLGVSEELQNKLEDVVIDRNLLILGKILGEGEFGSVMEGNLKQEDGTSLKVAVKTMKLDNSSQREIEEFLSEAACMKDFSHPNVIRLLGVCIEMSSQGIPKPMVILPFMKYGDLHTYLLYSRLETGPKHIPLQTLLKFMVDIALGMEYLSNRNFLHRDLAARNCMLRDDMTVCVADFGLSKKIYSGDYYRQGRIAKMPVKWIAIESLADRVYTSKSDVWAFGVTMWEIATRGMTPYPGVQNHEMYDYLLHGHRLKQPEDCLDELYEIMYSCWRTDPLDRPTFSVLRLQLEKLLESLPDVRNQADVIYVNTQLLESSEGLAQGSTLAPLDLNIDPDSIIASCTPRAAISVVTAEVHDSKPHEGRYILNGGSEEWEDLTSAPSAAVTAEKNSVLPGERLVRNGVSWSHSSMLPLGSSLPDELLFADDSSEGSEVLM

Hck = Hck (UniProt P08631); test: as above
Hck, sequence (P08631 whole entry, looked up): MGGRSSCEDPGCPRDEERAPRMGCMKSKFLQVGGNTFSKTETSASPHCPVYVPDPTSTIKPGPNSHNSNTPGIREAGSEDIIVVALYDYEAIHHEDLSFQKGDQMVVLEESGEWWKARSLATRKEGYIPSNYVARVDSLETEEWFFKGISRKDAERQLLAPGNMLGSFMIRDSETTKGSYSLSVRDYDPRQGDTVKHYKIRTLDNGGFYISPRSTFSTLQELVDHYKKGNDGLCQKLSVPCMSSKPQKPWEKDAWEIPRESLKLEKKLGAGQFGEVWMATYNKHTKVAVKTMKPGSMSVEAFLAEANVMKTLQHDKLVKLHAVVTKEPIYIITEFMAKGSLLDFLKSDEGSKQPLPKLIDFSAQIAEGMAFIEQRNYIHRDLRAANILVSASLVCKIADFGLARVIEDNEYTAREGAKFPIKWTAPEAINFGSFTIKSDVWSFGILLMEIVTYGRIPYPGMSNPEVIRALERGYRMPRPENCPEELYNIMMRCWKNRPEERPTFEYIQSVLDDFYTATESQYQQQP

FGFR1 = FGFR1 (UniProt P11362); test: as above
Grb2 SH2 = Grb2 SH2 (UniProt P62993); test: SH2 binding enrichment of the phosphorylated peptide, bacterial display (enrichment ratio); higher = better substrate or ligand; peptides without Tyr show the background
Grb2 SH2, sequence (P62993 whole entry, looked up): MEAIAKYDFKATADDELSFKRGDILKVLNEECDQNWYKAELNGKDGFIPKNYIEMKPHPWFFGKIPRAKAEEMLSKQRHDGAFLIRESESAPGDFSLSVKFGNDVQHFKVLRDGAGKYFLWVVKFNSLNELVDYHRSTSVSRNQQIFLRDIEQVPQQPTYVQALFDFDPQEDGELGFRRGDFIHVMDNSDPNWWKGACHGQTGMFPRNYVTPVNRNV

c-Src SH2 = test: as above
SHP2-C SH2 = test: as above
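Throughout, for SH2 binding enrichment of the phosphorylated peptide, bacterial display: peptide library displayed on the E. coli surface as eCPX fusions, selected cells deep-sequenced, score is each peptide's frequency after selection divided by its frequency in the input.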
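Throughout, for phosphorylation enrichment, bacterial display: 11-residue human phosphosite peptides and single-mutation variants displayed on the E. coli surface, counted by deep sequencing, each peptide's frequency after selection divided by its frequency in the unselected input library; frequency after pTyr selection over input frequency; kinase dosed for 20-30% of maximal phosphorylation in three min.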

Fes, sequence (P07332 whole entry, looked up): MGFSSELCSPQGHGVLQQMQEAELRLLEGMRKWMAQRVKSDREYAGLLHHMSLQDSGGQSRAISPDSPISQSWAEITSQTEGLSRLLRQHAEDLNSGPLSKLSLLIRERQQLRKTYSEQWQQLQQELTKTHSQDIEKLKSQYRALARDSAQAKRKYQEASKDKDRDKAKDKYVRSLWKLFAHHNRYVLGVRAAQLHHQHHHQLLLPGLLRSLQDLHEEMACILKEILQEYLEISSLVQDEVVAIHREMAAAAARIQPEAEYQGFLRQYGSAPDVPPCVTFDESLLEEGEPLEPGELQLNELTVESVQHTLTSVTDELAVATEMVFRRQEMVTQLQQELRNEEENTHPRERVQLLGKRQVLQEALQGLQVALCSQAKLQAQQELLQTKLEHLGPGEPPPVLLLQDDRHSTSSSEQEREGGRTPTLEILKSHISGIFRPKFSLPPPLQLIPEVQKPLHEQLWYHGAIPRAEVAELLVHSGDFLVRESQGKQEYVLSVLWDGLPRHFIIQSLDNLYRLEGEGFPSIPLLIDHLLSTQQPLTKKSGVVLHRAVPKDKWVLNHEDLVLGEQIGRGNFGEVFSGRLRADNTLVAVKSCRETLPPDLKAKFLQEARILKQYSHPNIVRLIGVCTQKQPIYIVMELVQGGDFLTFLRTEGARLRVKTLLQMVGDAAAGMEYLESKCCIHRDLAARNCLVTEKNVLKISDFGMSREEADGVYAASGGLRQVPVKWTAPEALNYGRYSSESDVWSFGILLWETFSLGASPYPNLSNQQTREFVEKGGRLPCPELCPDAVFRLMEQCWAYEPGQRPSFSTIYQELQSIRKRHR

| Sequence | phosphorylation enrichment (Fer (mouse)) | phosphorylation enrichment (EPHB1) | phosphorylation enrichment (c-Abl (mouse)) | phosphorylation enrichment (Fes) | phosphorylation enrichment (FGFR3) | phosphorylation enrichment (Jak2) | phosphorylation enrichment (c-Src) | phosphorylation enrichment (AncSZ) | phosphorylation enrichment (Fyn) | phosphorylation enrichment (EPHB2) | phosphorylation enrichment (MERTK) | phosphorylation enrichment (Hck) | phosphorylation enrichment (FGFR1) | SH2 binding enrichment (Grb2 SH2) | SH2 binding enrichment (c-Src SH2) | SH2 binding enrichment (SHP2-C SH2) |
| --- | --- | --- | --- | --- | --- | --- | --- | --- | --- | --- | --- | --- | --- | --- | --- | --- |
| PSAVAYPKRSQ [MARK3_Y432_V429A] | 0.444 | 0.544 | 0.615 | 0.818 | 0.545 | 0.577 | 0.696 | 0.697 | 0.563 | 0.563 | 0.685 | 0.441 | 0.382 | 1.06 | 0.473 | 0.646 |
| YKIYRYTLNDN [FN1_Y1975_L1974R] | 0.406 | 0.467 | 0.688 | 1.04 | 0.617 | 0.905 | 0.415 | 1.13 | 0.368 | 0.557 | 0.331 | 0.573 | 0.439 | 0.77 | 0.534 | 0.832 |
| QPDFLYDHIQP [TRRAP_Y862] | 12 | 5.27 | 0.928 | 1.74 | 1.45 | 1.21 | 5.86 | 2.58 | 6.9 | 3.31 | 7.66 | 9.82 | 0.622 | 0.964 | 0.376 | 0.369 |
| ANNQRYAFMPL [TMEM87B_Y460] | 0.394 | 0.655 | 0.528 | 0.696 | 0.566 | 0.621 | 0.485 | 0.588 | 0.436 | 0.591 | 5.61 | 0.393 | 0.535 | 0.821 | 1.42 | 0.84 |
| CGQDPCIRELG [UROS_Y19_Y19C] | 0.458 | 0.44 | 0.644 | 0.946 | 0.569 | 0.821 | 0.421 | 0.991 | 0.468 | 0.508 | 0.449 | 0.423 | 0.581 | 1.03 | 0.762 | 1.06 |
| LNPVVYTLRNA [OR4C12_Y285] | 0.856 | 0.761 | 1.2 | 1.09 | 0.69 | 1.5 | 1.92 | 1.26 | 0.635 | 0.636 | 0.971 | 1.27 | 0.593 | 0.77 | 0.629 | 1.37 |
| IINENYDYLKG [NUP98_Y1664] | 0.401 | 0.657 | 0.649 | 0.871 | 0.518 | 0.803 | 0.469 | 0.846 | 0.406 | 0.707 | 0.491 | 1.07 | 0.535 | 0.751 | 0.728 | 0.812 |
| FISVGYVDDTL [HLA-B_Y51_Q56L] | 0.652 | 0.738 | 0.772 | 1.21 | 0.801 | 1.03 | 0.557 | 1.12 | 0.486 | 0.736 | 0.436 | 0.485 | 0.572 | 1.05 | 0.728 | 0.896 |
| PEADKYCLTYA [FGG_Y300_R301C] | 0.735 | 0.722 | 0.917 | 1.2 | 1.09 | 1.38 | 0.821 | 1.27 | 0.691 | 0.599 | 0.477 | 0.601 | 0.486 | 0.882 | 0.687 | 0.778 |
| NTYEKYLEEEY [TF_Y669_G671E] | 0.563 | 0.802 | 1.27 | 1.93 | 0.86 | 1.6 | 0.9 | 1.6 | 0.535 | 0.686 | 0.563 | 0.608 | 0.553 | 0.743 | 2.16 | 0.607 |
| FARNCYVAGQF [G6PD_Y107_S106C_YF] | 0.417 | 0.505 | 0.714 | 0.938 | 0.553 | 0.743 | 0.507 | 0.983 | 0.387 | 0.487 | 0.363 | 0.409 | 0.461 | 0.742 | 0.437 | 0.383 |
| WHHTFYNELCV [ACTC1_Y93_R97C] | 1.04 | 0.793 | 0.761 | 1.23 | 0.979 | 1.03 | 0.73 | 1.19 | 0.574 | 0.658 | 0.905 | 1.18 | 0.881 | 0.86 | 1.2 | 0.767 |
| VDSLRYIFPKL [EIF2B3_Y92_A87V_YF] | 0.463 | 0.449 | 0.85 | 0.9 | 0.51 | 0.822 | 0.526 | 0.704 | 0.372 | 0.38 | 0.531 | 0.385 | 0.486 | 1.01 | 0.752 | 1.27 |
| RLPNGYGLAYR [DLK1_Y262_S260N] | 0.504 | 0.416 | 0.413 | 0.737 | 0.573 | 0.509 | 0.423 | 0.706 | 0.961 | 0.528 | 0.453 | 0.571 | 0.663 | 1.15 | 0.656 | 0.55 |
| RQRTAYFSLNT [CDH1_Y68_D72N] | 0.552 | 0.661 | 0.77 | 1.1 | 0.745 | 1.34 | 0.667 | 0.794 | 0.699 | 0.68 | 0.566 | 0.423 | 0.586 | 0.901 | 0.871 | 14.9 |
| SVSVNYGDQVQ [GRAP_Y101] | 0.442 | 0.443 | 0.804 | 0.902 | 0.561 | 0.794 | 0.429 | 0.748 | 0.409 | 0.483 | 0.545 | 0.416 | 0.481 | 0.941 | 0.487 | 0.651 |
| EGNEQYEGFCV [GRIA3_Y451_R450Q_YF] | 2.87 | 0.962 | 0.791 | 1.41 | 0.822 | 1.01 | 0.788 | 1.29 | 0.726 | 0.639 | 0.832 | 0.721 | 0.618 | 0.84 | 0.56 | 0.964 |

| Sequence | phosphorylation enrichment (Fer (mouse)) | phosphorylation enrichment (EPHB1) | phosphorylation enrichment (c-Abl (mouse)) | phosphorylation enrichment (Fes) | phosphorylation enrichment (FGFR3) | phosphorylation enrichment (Jak2) | phosphorylation enrichment (c-Src) | phosphorylation enrichment (AncSZ) | phosphorylation enrichment (Fyn) | phosphorylation enrichment (EPHB2) | phosphorylation enrichment (MERTK) | phosphorylation enrichment (Hck) | phosphorylation enrichment (FGFR1) | SH2 binding enrichment (Grb2 SH2) | SH2 binding enrichment (c-Src SH2) | SH2 binding enrichment (SHP2-C SH2) |
| --- | --- | --- | --- | --- | --- | --- | --- | --- | --- | --- | --- | --- | --- | --- | --- | --- |
| KKHIPCREHKS [CSNK1G2_Y206_Y206C] | 1.66 | 1.6 | 2.79 | 2.35 | 3.13 | 3.46 | 0.832 | 1.76 | 0.667 | 0.962 | 0.713 | 0.876 | 1.13 | 1.6 | 1.68 | 1.62 |
| FGAHNYHPLPV [OAT_Y55_YF] | 0.35 | 0.573 | 0.562 | 0.535 | 3.33 | 0.58 | 0.538 | 1.64 | 0.468 | 0.677 | 1.04 | 0.606 | 6.41 | 0.817 | 0.893 | 0.493 |
| VIESSYQVAKA [CPT1B_Y534] | 0.448 | 0.454 | 0.558 | 0.815 | 0.404 | 0.535 | 0.483 | 0.7 | 0.457 | 0.483 | 0.44 | 0.577 | 0.489 | 0.906 | 0.537 | 0.782 |
| SEPDLYFDPRG [PKP1_Y160_C161Y_YF] | 0.841 | 13.1 | 2.71 | 1.14 | 6.9 | 3.41 | 4.46 | 2.86 | 4.59 | 11.4 | 4.69 | 9.33 | 9.25 | 0.9 | 0.492 | 0.741 |
| RKLVDYDSAQH [BIN1_Y150_R154Q] | 0.737 | 0.648 | 0.871 | 0.988 | 1.28 | 0.56 | 0.541 | 0.548 | 0.4 | 0.796 | 0.565 | 0.668 | 0.425 | 1.1 | 0.541 | 0.607 |
| EFLKNYFTDKA [DSG2_Y775_R773K] | 0.361 | 0.527 | 0.573 | 0.827 | 0.493 | 0.808 | 0.632 | 0.847 | 0.581 | 0.63 | 0.531 | 0.556 | 0.555 | 0.764 | 0.365 | 0.882 |
| SILTVYSKDNF [PANK2_Y400_A398T_YF] | 0.481 | 0.549 | 0.456 | 0.894 | 0.627 | 0.907 | 0.6 | 0.814 | 0.516 | 0.514 | 0.454 | 0.548 | 0.572 | 0.838 | 0.466 | 0.73 |
| HFEDGYPGGSD [CTNND1_Y221_YF] | 0.5 | 0.656 | 0.485 | 1.45 | 0.806 | 0.955 | 0.514 | 1.15 | 0.74 | 0.675 | 0.598 | 0.756 | 0.668 | 0.851 | 0.397 | 0.731 |
| KELAKYYKLHH [AK7_Y390_N389K] | 0.383 | 0.366 | 0.46 | 0.472 | 0.418 | 0.379 | 0.439 | 0.472 | 0.35 | 0.363 | 0.422 | 0.39 | 0.377 | 1.01 | 0.782 | 0.622 |
| RQQEVYLLYKQ [RARRES1_Y159_D158V] | 0.611 | 0.757 | 1.13 | 1.98 | 1.11 | 1.34 | 1.41 | 1.5 | 0.919 | 0.855 | 0.842 | 0.877 | 0.672 | 0.918 | 0.61 | 0.765 |
| KLADMYGGGKD [CDH1_Y876_E880K] | 0.414 | 0.468 | 0.528 | 0.692 | 0.424 | 0.547 | 0.353 | 0.584 | 0.425 | 0.497 | 0.346 | 0.476 | 0.462 | 0.779 | 0.412 | 0.376 |
| NDPMEYAKQHG [ASS1_Y163_L160P] | 0.426 | 0.419 | 0.718 | 0.876 | 0.527 | 0.86 | 0.396 | 0.769 | 0.389 | 0.485 | 0.465 | 0.467 | 0.415 | 0.804 | 0.457 | 0.545 |
| KTGNIYRTEYG [MRPL3_Y265_M261T] | 0.629 | 0.451 | 0.441 | 0.633 | 0.592 | 0.414 | 0.424 | 0.555 | 0.488 | 0.421 | 0.425 | 0.496 | 0.464 | 0.829 | 0.463 | 0.91 |
| NVTRKYTRQIL [MAP3K2_Y463] | 0.305 | 0.333 | 0.397 | 0.411 | 0.353 | 0.339 | 0.373 | 0.363 | 0.372 | 0.264 | 0.319 | 0.265 | 0.316 | 0.853 | 0.477 | 0.644 |
| HLPAGYIIPLQ [GAA_Y822_R819P] | 0.297 | 0.383 | 0.363 | 0.764 | 0.444 | 0.608 | 0.492 | 0.638 | 0.388 | 0.28 | 0.542 | 0.491 | 0.443 | 0.895 | 0.987 | 11.3 |
| VISNAYVDLSP [HSD17B4_Y602_A606S] | 0.511 | 0.443 | 0.711 | 0.818 | 0.62 | 0.829 | 0.525 | 1.11 | 0.534 | 0.523 | 0.518 | 0.542 | 0.896 | 0.593 | 3.09 | 0.753 |
